Consider 5 molecules from article PMC12378399 (Metallomics : integrated biometal science, 2025).

Read-outs that look alike come from different tables or passages of the source.

Test [1] concerns the target SufS (with SufE) (Escherichia coli, UniProt P77444). The conditions noted are these: 50 mM MOPS pH 8.0, 150 mM NaCl, 2 mM TCEP, 500 μM L-cysteine, SufE 0.25-3 μM varied (not cysteine).
Test [2] deals with BODIPY-labeled SufE C51A/E107C (SufEDM) (E. coli) (UniProt P76194). Description: fluorescence polarisation. A general note: Polarisation of emitted light reports the rotation of a fluorescent probe.
Test [3] concerns the target SufS (Escherichia coli) (UniProt P77444). The following applies: cited from earlier work.
The target is the same in test [4]. The following applies: cited from earlier work. The source holds these as a separate data set.
In test [5] the target is SufBC2D (Escherichia coli) (UniProt P77522). Nature of the test: surface plasmon resonance. The conditions noted are these: cited from earlier work.
SufBC2D (Escherichia coli), sequence (P77522 whole entry, chain 1 of 3): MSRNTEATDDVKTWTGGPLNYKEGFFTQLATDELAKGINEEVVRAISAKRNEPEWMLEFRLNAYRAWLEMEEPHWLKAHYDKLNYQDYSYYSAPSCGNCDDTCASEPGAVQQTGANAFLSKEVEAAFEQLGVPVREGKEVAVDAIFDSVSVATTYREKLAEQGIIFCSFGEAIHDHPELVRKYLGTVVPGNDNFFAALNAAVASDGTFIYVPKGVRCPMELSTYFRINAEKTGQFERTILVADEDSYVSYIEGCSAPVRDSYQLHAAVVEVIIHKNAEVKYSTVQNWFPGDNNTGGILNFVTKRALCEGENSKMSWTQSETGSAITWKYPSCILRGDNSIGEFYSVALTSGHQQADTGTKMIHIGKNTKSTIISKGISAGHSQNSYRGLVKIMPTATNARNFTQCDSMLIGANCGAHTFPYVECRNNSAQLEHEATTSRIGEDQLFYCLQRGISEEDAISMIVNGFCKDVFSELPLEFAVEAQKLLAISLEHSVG
SufBC2D (Escherichia coli), sequence (P77499 whole entry, chain 2 of 3, further chain): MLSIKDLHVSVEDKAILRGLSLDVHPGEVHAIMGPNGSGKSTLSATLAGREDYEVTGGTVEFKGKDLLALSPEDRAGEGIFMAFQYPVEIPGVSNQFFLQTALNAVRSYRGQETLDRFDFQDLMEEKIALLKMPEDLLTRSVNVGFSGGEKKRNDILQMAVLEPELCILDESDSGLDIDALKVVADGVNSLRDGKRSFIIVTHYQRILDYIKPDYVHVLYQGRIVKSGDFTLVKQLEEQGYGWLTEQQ
SufBC2D (Escherichia coli), sequence (P77689 whole entry, chain 3 of 3, further chain): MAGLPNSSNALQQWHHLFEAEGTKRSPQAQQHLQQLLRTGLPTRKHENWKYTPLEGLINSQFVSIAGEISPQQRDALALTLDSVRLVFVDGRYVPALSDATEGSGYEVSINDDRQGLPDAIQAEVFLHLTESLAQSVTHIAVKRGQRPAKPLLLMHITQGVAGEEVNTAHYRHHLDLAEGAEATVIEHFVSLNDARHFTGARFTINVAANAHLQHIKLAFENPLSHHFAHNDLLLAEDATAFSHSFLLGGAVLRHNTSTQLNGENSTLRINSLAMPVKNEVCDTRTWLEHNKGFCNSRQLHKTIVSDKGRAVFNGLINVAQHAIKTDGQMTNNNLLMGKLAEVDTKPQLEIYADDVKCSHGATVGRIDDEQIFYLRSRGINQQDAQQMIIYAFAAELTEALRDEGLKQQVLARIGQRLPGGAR
Test [6] concerns the target SufBC2D scaffold complex (His6-SufBCD) (E. coli) (UniProt P77522).
Test [7] has the same target. Nature of the test: steady-state enzyme inhibition.

SufBC2D scaffold complex (His6-SufBCD) (E. coli), sequence (P77522 whole entry, chain 1 of 3): as the sequence (P77522 whole entry, chain 1 of 3) above
SufBC2D scaffold complex (His6-SufBCD) (E. coli), sequence (P77499 whole entry, chain 2 of 3, further chain): as the sequence (P77499 whole entry, chain 2 of 3, further chain) above
SufBC2D scaffold complex (His6-SufBCD) (E. coli), sequence (P77689 whole entry, chain 3 of 3, further chain): as the sequence (P77689 whole entry, chain 3 of 3, further chain) above
SufS (Escherichia coli), sequence (P77444 whole entry): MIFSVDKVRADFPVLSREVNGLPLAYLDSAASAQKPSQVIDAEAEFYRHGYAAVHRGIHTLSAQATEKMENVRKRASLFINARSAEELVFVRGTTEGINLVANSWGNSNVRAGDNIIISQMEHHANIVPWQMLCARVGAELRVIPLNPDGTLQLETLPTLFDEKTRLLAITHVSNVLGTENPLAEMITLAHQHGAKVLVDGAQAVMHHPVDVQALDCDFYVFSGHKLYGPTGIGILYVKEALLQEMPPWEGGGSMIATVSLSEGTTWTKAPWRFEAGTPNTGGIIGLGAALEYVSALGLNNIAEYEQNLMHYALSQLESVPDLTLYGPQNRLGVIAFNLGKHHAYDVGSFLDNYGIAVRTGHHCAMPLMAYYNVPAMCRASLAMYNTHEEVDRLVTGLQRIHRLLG
SufS (with SufE), sequence (P77444 whole entry, one chain of several): as the sequence (P77444 whole entry) above

For the molecule `N[C@@H](CS)C(=O)O` [L-cysteine], in test [1], the “NDA-alanine fluorescence detection of L-alanine produced” value was “Cysteine desulfurase activity of SufS was measured by quantifying the amount of L-alanine produced”.

In general, Kd refers to a measure of binding affinity in units of concentration. Consider “SufBC2D scaffold complex (His6-SufBCD) (from UniProt P77522 1-495; P77499 1-248; P77689 1-423)”, for which the Kd in test [2] was 1.6 µM. In the case of SufE (from UniProt P76194), the dissociation constant Kd in test [3] was 0.5 µM; in test [4] it was 5 µM; in test [5], 2.8 µM.

B1: SufE (wildtype) (natural protein)
chain: MALLPDKEKLLRNFLRCANWEEKYLYIIELGQRLPELRDEDRSPQNSIQGCQSQVWIVMRQNAQGIIELQGDSDAAIVKGLIAVVFILYDQMTPQDIVNFDVRPWFEKMALTQHLTPSRSQGLEAMIRAIRAKAAALS
What is called Ki is the equilibrium dissociation constant of an inhibitor or competing ligand from its target. Higher therefore signals a looser hold on the target. For the molecule B1, in test [6], the IC50 of inhibition of SufBC2D ATPase activity in the presence of 500 μM Mg2+-ATP was 1 µM. Also, the Ki in test [7] worked out at 1.8 µM.

B2: Carbamidomethylated SufE (SufE-alk) (natural protein)
chain: MALLPDKEKLLRNFLRCANWEEKYLYIIELGQRLPELRDEDRSPQNSIQGCQSQVWIVMRQNAQGIIELQGDSDAAIVKGLIAVVFILYDQMTPQDIVNFDVRPWFEKMALTQHLTPSRSQGLEAMIRAIRAKAAALS
modifications: C51 alkylated (carbamidomethylated with iodoacetamide)
B2 gave a Ki in test [7] of 2.5 µM.
